Source: patent publication US20080131434A1 (ONCOMED PHARMACEUTICALS, published 2008)

Key:
[1] = target: T1, NOTCH1 EGF 1-3 Fc fusion protein (human, UniProt P46531 19-139, limits assumed); assay: Western blot, SDS-PAGE of Fc fusion proteins
T1 construct: domain: EGF 1-3; Member of the nested deletion series; not shown: Fc
T1 sequence (looked up): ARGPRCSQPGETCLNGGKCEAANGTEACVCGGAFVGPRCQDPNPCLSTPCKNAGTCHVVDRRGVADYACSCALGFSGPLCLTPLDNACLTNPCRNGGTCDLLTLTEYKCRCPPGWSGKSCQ
Source text: (§1) FIG. 1: Epitope mapping of anti-NOTCH1 monoclonal antibodies that bind to non-ligand binding domains.
(§2) To identify antibodies that recognize specific non-ligand binding regions of the NOTCH receptor extracellular domains, epitope mapping was preformed. In certain embodiments, mammalian expression plasmid vectors comprising a CMV promoter upstream of polynucleotides that encode fragments of the extracellular NOTCH1 domain as Fc fusion proteins were generated using standard recombinant DNA technology. These fusion proteins included a series of NOTCH1 fragments containing a nested series of deletions of EGF domains 1-5 or 10-15. Recombinant proteins were then expressed in cultured mammalian cells by transient transfection. Twenty-four to 48 hours following transfection, cells were harvested and cell lysate protein separated on non-reducing SDS-PAGE acrylamide gels for Western blotting using antibodies from mice immunized with NOTCH1 antigen. […] All antibody affinities were determined by BIAcore.

[2] = target: T2, NOTCH1 EGF 5 Fc fusion protein (human, UniProt P46531 178-220, limits assumed); assay: Western blot, SDS-PAGE of Fc fusion proteins
T2 construct: domain: EGF 5; Member of the nested deletion series; also called EGF 5 alone; not shown: Fc
T2 chain (looked up): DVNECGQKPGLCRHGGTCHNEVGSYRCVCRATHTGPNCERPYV
Source text: as §1, §2

[3] = target: T3, NOTCH1 (construct used in the assay not stated) (human, UniProt P46531 19-220, limits assumed); assay: BIAcore; format and NOTCH1 construct not stated
T3 sequence (looked up): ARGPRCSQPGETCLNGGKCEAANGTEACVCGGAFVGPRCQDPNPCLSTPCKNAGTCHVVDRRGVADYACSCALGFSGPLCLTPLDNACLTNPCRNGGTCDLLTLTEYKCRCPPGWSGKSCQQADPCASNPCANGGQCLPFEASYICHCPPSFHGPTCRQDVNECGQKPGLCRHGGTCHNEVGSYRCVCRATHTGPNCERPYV

EGF1 = target: T4, EGF1; assay: Western blot of Fc fusion proteins of the antigen deletion series, non-reduced SDS-PAGE
T4 construct: member of the EGF 1-5 deletion series; also called NOTCH1 EGF 1 Fc fusion protein (deletion series)
T4 chain: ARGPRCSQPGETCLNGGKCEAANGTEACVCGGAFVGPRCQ
Source text: as §1, §2

EGF1-2 = target: T5, EGF1-2; assay: as above
T5 construct: member of the EGF 1-5 deletion series; also called NOTCH1 EGF 1-2 Fc fusion protein (deletion series)
T5 chain: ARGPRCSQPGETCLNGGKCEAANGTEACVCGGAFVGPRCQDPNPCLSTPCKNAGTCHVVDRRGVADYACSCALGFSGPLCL
Source text: as §1, §2

EGF2-5 = target: T6, EGF2-5; assay: as above
T6 construct: member of the EGF 1-5 deletion series; also called NOTCH1 EGF 2-5 Fc fusion protein (deletion series)
T6 chain: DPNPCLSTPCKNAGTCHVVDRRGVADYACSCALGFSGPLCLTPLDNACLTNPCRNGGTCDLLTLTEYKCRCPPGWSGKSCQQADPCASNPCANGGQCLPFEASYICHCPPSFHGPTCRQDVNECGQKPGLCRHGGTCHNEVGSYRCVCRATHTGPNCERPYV
Source text: as §1, §2

B1: anti-NOTCH1 monoclonal antibody 13M57 (antibody, mouse IgG1, kappa, V domains shown)
VH: EVNLVESGGDLVQPGGSLRLSCAASGFTFSSYTMSWVRQTPEKRLEWVAYIDYGGDFTSYSDAIRGRFTISRDNAKNTLYLQMSSLKSEDTAIYYCSRRRYDAMDYWGQGTSVIVSS
VL: DIQMTQSTSSLSASLGDRVTVSCSASQAISNYLNWYQQKPDGTLKLLIYYTTNLHSGVPSRFSGSGSGTDYSLTISNLEPEDIATYYCQQYSKFPWTFGGGTKLEIKR
notes: Murine hybridoma antibody raised against NOTCH1 EGF repeats 1-5; Conjugated to Alexa Fluor 647 for some FACS work; also called 13M30
With B1 the binding result [1] was “no binding”, the binding result [2] was “no binding” and the Kd [3] was 0.2 nM. B1: no binding (EGF1); no binding (EGF1-2); binds (EGF2-5).
